Results as given in patent publication US20140274782A1, “AFFINITY REAGENTS AND METHODS FOR DETECTION, PURIFICATION, AND PROTEOMIC ANALYSIS OF METHYLATED PROTEINS” (The Board of Trustees of the Leland Stanford Junior …, priority 2013, published 2014).

How the values were obtained:
Assay in all cases: ProtoArray, G9a array SNR minus GST array SNR
[1] = biological target: CSF3, G9a-methylated (human) (UniProt P09919)
[2] = biological target: SH3YL1 (clone MGC:12275), G9a-methylated (human) (UniProt Q96HL8)
[3] = biological target: LRRC20, G9a-methylated (human) (UniProt Q8TCA0)
[4] = biological target: SSR4, G9a-methylated (human) (UniProt P51571)
[5] = biological target: CD79A, G9a-methylated (human) (UniProt P11912)
[6] = biological target: SEC22B, G9a-methylated (human) (UniProt O75396)
[7] = biological target: RTN1, G9a-methylated (human) (UniProt Q16799)
[8] = biological target: GPX5, G9a-methylated (human) (UniProt O75715)
[9] = biological target: CDKL5, G9a-methylated (human) (UniProt O76039)
[10] = biological target: CTSZ, G9a-methylated (human) (UniProt Q9UBR2)
[11] = biological target: FTH1 (hit 109), G9a-methylated (human) (UniProt P02794)
[12] = biological target: PSMA8, G9a-methylated (human) (UniProt Q8TAA3)
[13] = biological target: C11orf73, G9a-methylated (human) (UniProt Q53FT3)
[14] = biological target: C2orf43, G9a-methylated (human) (UniProt Q9H6V9)
[15] = biological target: DNTT, G9a-methylated (human) (UniProt P04053)
[16] = biological target: STK17B, G9a-methylated (human) (UniProt O94768)
[17] = biological target: C12orf60, G9a-methylated (human) (UniProt Q5U649)
[18] = biological target: LPAL2, G9a-methylated (human) (UniProt Q16609)
[19] = biological target: RPL14, G9a-methylated (human) (UniProt P50914)
[20] = biological target: BLCAP, G9a-methylated (human) (UniProt P62952)
[21] = biological target: C10orf58, G9a-methylated (human) (UniProt Q9BRX8)
[22] = biological target: LYRM7, G9a-methylated (human) (UniProt Q5U5X0)
[23] = biological target: DYNC2LI1, G9a-methylated (human) (UniProt Q8TCX1)
[24] = biological target: GFOD1, G9a-methylated (human) (UniProt Q9NXC2)
[25] = biological target: SCGB1A1, G9a-methylated (human) (UniProt P11684)
[26] = biological target: VPS29, G9a-methylated (human) (UniProt Q9UBQ0)
[27] = biological target: UBE2S, G9a-methylated (human) (UniProt Q16763)
[28] = biological target: SMYD5, G9a-methylated (human) (UniProt Q6GMV2)
[29] = biological target: MOBKL3, G9a-methylated (human) (UniProt Q9Y3A3)
[30] = biological target: RHBDD1, G9a-methylated (human) (UniProt Q8TEB9)
[31] = biological target: CDK10, G9a-methylated (human) (UniProt Q15131)
[32] = biological target: GPX1, G9a-methylated (human) (UniProt P07203)
[33] = biological target: TEAD4, G9a-methylated (human) (UniProt Q15561)
[34] = biological target: ARL6IP1, G9a-methylated (human) (UniProt Q15041)
[35] = biological target: TMEM32, G9a-methylated (human) (UniProt Q8N4V1)
[36] = biological target: PTCD2, G9a-methylated (human) (UniProt Q8WV60)
[37] = biological target: ACSL4, G9a-methylated (human) (UniProt O60488)
[38] = biological target: CRYZL1, G9a-methylated (human) (UniProt O95825)
[39] = biological target: RDH11, G9a-methylated (human) (UniProt Q8TC12)
[40] = biological target: YPEL5, G9a-methylated (human) (UniProt P62699)

Sequence of PTCD2, G9a-methylated (human) (Q8WV60 whole entry): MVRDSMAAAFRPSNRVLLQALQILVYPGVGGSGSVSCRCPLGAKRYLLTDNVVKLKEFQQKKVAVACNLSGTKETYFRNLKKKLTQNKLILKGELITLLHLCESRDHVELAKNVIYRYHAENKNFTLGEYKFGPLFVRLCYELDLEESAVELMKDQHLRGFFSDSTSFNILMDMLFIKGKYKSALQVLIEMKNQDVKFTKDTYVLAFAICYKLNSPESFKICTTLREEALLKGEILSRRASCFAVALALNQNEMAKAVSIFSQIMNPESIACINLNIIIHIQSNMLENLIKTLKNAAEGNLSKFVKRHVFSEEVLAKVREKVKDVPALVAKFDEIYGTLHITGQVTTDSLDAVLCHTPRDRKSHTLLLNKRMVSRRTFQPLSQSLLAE
Sequence of GFOD1, G9a-methylated (human) (Q9NXC2 22-390 limits assumed): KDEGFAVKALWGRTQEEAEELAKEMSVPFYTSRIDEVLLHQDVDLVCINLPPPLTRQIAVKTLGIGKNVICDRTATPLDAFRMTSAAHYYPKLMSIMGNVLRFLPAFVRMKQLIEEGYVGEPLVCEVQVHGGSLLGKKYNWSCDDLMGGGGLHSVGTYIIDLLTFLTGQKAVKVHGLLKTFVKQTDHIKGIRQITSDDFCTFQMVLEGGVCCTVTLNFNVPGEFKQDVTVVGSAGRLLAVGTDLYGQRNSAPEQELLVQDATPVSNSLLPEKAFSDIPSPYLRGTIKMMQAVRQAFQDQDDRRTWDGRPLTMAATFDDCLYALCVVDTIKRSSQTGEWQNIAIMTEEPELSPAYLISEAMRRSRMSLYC
Sequence of RDH11, G9a-methylated (human) (Q8TC12 whole entry): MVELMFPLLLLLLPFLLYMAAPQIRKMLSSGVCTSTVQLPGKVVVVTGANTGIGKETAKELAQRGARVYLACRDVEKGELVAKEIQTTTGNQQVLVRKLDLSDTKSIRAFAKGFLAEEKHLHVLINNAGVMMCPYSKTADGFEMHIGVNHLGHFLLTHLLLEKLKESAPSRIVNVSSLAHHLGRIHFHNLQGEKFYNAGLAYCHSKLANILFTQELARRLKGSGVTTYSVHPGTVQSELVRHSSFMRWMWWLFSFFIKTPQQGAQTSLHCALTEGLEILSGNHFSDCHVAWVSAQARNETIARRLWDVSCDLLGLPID
Sequence of SMYD5, G9a-methylated (human) (Q6GMV2 whole entry): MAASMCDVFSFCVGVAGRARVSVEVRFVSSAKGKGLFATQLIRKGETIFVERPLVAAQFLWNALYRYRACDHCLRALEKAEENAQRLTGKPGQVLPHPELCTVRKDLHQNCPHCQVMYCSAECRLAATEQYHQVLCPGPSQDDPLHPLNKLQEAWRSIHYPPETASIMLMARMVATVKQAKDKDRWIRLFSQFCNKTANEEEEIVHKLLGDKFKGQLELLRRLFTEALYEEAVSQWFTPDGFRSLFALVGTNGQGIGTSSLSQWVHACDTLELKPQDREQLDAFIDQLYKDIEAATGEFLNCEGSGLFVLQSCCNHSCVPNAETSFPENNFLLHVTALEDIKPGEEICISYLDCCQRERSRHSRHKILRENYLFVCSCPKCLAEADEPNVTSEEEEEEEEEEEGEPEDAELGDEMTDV
Sequence of C10orf58, G9a-methylated (human) (Q9BRX8 whole entry): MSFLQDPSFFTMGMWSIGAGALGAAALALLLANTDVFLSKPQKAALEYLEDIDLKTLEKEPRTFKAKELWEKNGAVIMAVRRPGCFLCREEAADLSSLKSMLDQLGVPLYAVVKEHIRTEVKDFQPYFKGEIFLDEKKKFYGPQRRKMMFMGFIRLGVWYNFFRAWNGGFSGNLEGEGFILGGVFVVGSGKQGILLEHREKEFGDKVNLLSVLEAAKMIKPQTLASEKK
Sequence of GPX5, G9a-methylated (human) (O75715 other isoform, or with tags, fused parts or gaps limits assumed): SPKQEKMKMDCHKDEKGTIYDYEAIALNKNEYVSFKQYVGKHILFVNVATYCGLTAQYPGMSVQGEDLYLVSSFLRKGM
Sequence of LPAL2, G9a-methylated (human) (Q16609 22-132 limits assumed): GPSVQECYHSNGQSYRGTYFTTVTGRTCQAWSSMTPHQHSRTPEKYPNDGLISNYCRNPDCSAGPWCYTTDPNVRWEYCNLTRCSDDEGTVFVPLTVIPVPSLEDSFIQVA
Sequence of GPX1, G9a-methylated (human) (P07203 whole entry): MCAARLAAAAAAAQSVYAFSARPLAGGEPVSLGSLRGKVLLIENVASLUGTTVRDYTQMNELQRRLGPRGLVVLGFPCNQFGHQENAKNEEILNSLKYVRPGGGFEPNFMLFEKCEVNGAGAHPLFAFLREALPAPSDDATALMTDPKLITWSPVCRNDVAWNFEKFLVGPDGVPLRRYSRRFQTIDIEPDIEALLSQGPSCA
Sequence of SEC22B, G9a-methylated (human) (O75396 whole entry): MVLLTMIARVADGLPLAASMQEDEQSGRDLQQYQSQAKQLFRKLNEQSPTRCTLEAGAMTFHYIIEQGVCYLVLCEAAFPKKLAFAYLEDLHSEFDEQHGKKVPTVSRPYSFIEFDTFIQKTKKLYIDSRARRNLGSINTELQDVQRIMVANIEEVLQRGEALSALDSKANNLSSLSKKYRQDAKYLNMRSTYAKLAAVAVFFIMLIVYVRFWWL
Sequence of C2orf43, G9a-methylated (human) (Q9H6V9 whole entry): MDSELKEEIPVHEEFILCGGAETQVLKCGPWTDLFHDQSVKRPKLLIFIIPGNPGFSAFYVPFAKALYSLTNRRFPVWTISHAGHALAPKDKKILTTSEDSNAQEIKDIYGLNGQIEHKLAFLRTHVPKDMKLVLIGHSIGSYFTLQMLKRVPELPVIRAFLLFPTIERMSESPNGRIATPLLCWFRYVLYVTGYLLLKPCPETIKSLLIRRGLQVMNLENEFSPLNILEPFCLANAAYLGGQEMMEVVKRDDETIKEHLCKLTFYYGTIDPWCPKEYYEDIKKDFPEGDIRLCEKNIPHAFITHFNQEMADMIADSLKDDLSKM
Sequence of BLCAP, G9a-methylated (human) (P62952 whole entry): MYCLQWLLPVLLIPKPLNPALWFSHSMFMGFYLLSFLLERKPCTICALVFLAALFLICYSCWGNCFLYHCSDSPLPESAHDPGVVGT
Sequence of RTN1, G9a-methylated (human) (Q16799 other isoform, or with tags, fused parts or gaps limits assumed): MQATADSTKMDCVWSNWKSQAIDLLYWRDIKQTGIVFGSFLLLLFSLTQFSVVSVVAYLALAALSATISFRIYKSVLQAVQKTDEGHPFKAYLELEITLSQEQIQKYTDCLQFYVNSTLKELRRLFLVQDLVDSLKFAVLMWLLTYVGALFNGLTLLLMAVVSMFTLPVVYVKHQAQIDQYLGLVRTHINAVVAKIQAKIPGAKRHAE
Sequence of CD79A, G9a-methylated (human) (P11912 33-226 limits assumed): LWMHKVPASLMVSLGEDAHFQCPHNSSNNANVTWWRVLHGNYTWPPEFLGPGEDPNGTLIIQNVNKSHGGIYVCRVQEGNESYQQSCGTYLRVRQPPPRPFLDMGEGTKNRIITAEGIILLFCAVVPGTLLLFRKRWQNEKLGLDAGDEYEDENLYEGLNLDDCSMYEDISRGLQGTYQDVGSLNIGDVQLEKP
Sequence of FTH1 (hit 109), G9a-methylated (human) (P02794 whole entry): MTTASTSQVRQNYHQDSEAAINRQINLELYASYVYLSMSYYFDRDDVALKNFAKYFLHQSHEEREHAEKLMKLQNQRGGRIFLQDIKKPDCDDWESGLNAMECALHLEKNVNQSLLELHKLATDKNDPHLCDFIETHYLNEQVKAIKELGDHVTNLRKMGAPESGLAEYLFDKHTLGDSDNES
Sequence of CDKL5, G9a-methylated (human) (O76039 other isoform, or with tags, fused parts or gaps limits assumed): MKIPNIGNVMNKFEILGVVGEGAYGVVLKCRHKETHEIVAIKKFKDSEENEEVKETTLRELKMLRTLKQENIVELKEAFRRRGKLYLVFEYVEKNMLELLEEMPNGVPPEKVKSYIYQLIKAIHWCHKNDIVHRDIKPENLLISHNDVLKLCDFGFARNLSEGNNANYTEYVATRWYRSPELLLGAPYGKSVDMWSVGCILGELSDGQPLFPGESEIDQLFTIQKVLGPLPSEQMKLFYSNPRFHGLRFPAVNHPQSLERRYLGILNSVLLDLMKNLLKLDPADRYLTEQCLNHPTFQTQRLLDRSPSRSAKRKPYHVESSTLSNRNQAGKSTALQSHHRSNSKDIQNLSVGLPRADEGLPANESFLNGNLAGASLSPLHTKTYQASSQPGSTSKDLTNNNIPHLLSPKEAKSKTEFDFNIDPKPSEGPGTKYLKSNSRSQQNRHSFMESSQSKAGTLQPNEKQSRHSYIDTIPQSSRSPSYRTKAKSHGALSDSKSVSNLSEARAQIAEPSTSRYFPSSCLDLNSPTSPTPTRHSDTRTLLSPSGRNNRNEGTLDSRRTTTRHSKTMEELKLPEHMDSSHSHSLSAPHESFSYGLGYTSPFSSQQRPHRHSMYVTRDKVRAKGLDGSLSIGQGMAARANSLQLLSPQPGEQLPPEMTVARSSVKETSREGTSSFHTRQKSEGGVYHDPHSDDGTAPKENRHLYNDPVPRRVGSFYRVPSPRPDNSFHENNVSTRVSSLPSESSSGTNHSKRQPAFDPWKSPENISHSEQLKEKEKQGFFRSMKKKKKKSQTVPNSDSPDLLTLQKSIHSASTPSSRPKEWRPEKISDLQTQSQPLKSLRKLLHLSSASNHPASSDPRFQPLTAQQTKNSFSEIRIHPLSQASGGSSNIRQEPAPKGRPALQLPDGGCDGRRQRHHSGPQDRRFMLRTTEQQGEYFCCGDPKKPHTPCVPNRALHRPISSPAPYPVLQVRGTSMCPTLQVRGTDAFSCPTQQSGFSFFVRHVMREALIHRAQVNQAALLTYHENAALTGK
Sequence of SH3YL1 (clone MGC:12275), G9a-methylated (human) (Q96HL8 whole entry): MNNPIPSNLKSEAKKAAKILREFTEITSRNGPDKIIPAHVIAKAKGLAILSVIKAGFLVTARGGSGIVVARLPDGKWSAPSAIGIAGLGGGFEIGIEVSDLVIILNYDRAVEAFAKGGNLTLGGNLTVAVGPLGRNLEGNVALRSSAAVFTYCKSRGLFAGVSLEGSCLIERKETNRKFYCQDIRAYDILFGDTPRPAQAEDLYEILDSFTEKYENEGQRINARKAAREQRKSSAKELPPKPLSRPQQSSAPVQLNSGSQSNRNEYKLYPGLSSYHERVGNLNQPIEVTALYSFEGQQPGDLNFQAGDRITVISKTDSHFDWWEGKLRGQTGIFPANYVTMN
Sequence of LYRM7, G9a-methylated (human) (Q5U5X0 whole entry): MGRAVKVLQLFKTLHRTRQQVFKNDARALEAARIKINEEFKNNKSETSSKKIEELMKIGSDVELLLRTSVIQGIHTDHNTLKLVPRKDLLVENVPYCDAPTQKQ

Substance: 3× Flag-3×MBT (designed binder)
- G9a-GST [1]: 17.7
- G9a-GST [2]: 12.7
- G9a-GST [3]: 30.9
- G9a-GST [4]: 13
- G9a-GST [5]: 14.5
- G9a-GST [6]: 13.4
- G9a-GST [7]: 13.8
- G9a-GST [8]: 25.6
- G9a-GST [9]: 18.3
- G9a-GST [10]: 12.3
- G9a-GST [11]: 37.9
- G9a-GST [12]: 13.9
- G9a-GST [13]: 14.9
- G9a-GST [14]: 12.1
- G9a-GST [15]: 49.5
- G9a-GST [16]: 13.8
- G9a-GST [17]: 12.5
- G9a-GST [18]: 33
- G9a-GST [19]: 17.7
- G9a-GST [20]: 25.5
- G9a-GST [21]: 16
- G9a-GST [22]: 16.9
- G9a-GST [23]: 12.4
- G9a-GST [24]: 16
- G9a-GST [25]: 18.4
- G9a-GST [26]: 15.5
- G9a-GST [27]: 24.7
- G9a-GST [28]: 19.5
- G9a-GST [29]: 14
- G9a-GST [30]: 12.4
- G9a-GST [31]: 13.2
- G9a-GST [32]: 14.5
- G9a-GST [33]: 16.1
- G9a-GST [34]: 20.8
- G9a-GST [35]: 12.1
- G9a-GST [36]: 18.7
- G9a-GST [37]: 12.1
- G9a-GST [38]: 12.6
- G9a-GST [39]: 26.5
- G9a-GST [40]: 14.2
